B1: KLLPGVQYV (peptide)
peptide: KLLPGVQYV
B2: ALVGDVILTV (peptide)
peptide: ALVGDVILTV
B3: ALYTSGHLL (peptide)
peptide: ALYTSGHLL
B4: QLLEGELETL (peptide)
peptide: QLLEGELETL
B5: SLSDIQPCL (peptide)
peptide: SLSDIQPCL
B6: SIWPALTQV (peptide)
peptide: SIWPALTQV
B7: AVDPVSGSLYV (peptide)
peptide: AVDPVSGSLYV
B8: AVLGGKLYV (peptide)
peptide: AVLGGKLYV
B9: SLVSYLDKV (peptide)
peptide: SLVSYLDKV
B10: VCPPGGIQEV (peptide)
peptide: VCPPGGIQEV
B11: YLYPDLSRL (peptide)
peptide: YLYPDLSRL
B12: RLLPDLDEV (peptide)
peptide: RLLPDLDEV
B13: IQDAEGAIHEV (peptide)
peptide: IQDAEGAIHEV
B14: FVAGYIAGV (peptide)
peptide: FVAGYIAGV
B15: ALSNVVHKV (peptide)
peptide: ALSNVVHKV
B16: GLWSSIFSL (peptide)
peptide: GLWSSIFSL
B17: LLFTGLVSGV (peptide)
peptide: LLFTGLVSGV
B18: RIMEGIPTV (peptide)
peptide: RIMEGIPTV
B19: YLLDYPNNL (peptide)
peptide: YLLDYPNNL
B20: YLINEIDRIRA (peptide)
peptide: YLINEIDRIRA
B21: ALYDAELSQM (peptide)
peptide: ALYDAELSQM
B22: ALAKLLPLL (peptide)
peptide: ALAKLLPLL
B23: FLQLETEQV (peptide)
peptide: FLQLETEQV
B24: YLAEPQWAV (peptide)
peptide: YLAEPQWAV
B25: SLPESGLLSV (peptide)
peptide: SLPESGLLSV
B26: HLATVKLLV (peptide)
peptide: HLATVKLLV
B27: SLGNFKDDLL (peptide)
peptide: SLGNFKDDLL
B28: AILGFALSEA (peptide)
peptide: AILGFALSEA
B29: RLSGEGVGPV (peptide)
peptide: RLSGEGVGPV
B30: ILSSACYTV (peptide)
peptide: ILSSACYTV
B31: AIYEGVGWNV (peptide)
peptide: AIYEGVGWNV
B32: GLGDDSFPI (peptide)
peptide: GLGDDSFPI
B33: GLISSIEAQL (peptide)
peptide: GLISSIEAQL
B34: TLASLGYAVV (peptide)
peptide: TLASLGYAVV
B35: PVCPPGGIQEV (peptide)
peptide: PVCPPGGIQEV
B36: FLHEPFSSV (peptide)
peptide: FLHEPFSSV
B37: VLNVGVAEV (peptide)
peptide: VLNVGVAEV
B38: TLWPATPPKA (peptide)
peptide: TLWPATPPKA
B39: LLIAINPQV (peptide)
peptide: LLIAINPQV
B40: LLTPLNLQI (peptide)
peptide: LLTPLNLQI
B41: GLIEWLENTV (peptide)
peptide: GLIEWLENTV
B42: GLAGGFGGPGFPV (peptide)
peptide: GLAGGFGGPGFPV
B43: KLPEPCPSTV (peptide)
peptide: KLPEPCPSTV
B44: YLWEAHTNI (peptide)
peptide: YLWEAHTNI
B45: ILLEDVFQL (peptide)
peptide: ILLEDVFQL
B46: RLVEVGGDVQL (peptide)
peptide: RLVEVGGDVQL
B47: ALKDSVQRA (peptide)
peptide: ALKDSVQRA
B48: ILDINDNPPV (peptide)
peptide: ILDINDNPPV
B49: VLDINDNPPV (peptide)
peptide: VLDINDNPPV
B50: ALDTFSVQV (peptide)
peptide: ALDTFSVQV
B51: LLPEDDTRDNV (peptide)
peptide: LLPEDDTRDNV
B52: SLCPPGGIQEV (peptide)
peptide: SLCPPGGIQEV
B53: FLIPSIIFA (peptide)
peptide: FLIPSIIFA
B54: TLTDEINFL (peptide)
peptide: TLTDEINFL
B55: SLYGLGGSKRISI (peptide)
peptide: SLYGLGGSKRISI
B56: … (peptide)
peptide: TLVDENQSWYL
notes: also called TLVDENQSWYL
B57: VLFSSPPVI (peptide)
peptide: VLFSSPPVI
B58: RLNGEGVGQVNISV (peptide)
peptide: RLNGEGVGQVNISV
B59: YLQNEVFGL (peptide)
peptide: YLQNEVFGL
B60: SMLNNIINL (peptide)
peptide: SMLNNIINL

Consider 60 molecules from patent publication US20200155602A1 (IMMATICS BIOTECHNOLOGIES, published 2020).

Bounds are passed on as bounds.

The target in this test is T1, HLA-A*02:01 (human).
T1 construct: Peptide-receptive HLA-A*02:01 monomer obtained by UV cleavage of a UV-sensitive ligand; captured on streptavidin plates; also called peptide-receptive MHC molecules; MHC class I
As to the kind of experiment: UV-ligand exchange, anti-b2m ELISA; grade of peptide exchange yield (>10% = +; >20% = ++; >50 = +++; >75% = ++++). The source says: Candidate peptides for T cell based therapies according to the present invention were further tested for their MHC binding capacity (affinity). The individual peptide-MHC complexes were produced by UV-ligand exchange, where a UV-sensitive peptide is cleaved upon UV-irradiation, and exchanged with the peptide of interest as analyzed. Only peptide candidates that can effectively bind and stabilize the peptide-receptive MHC molecules prevent dissociation of the MHC complexes. To determine the yield of the exchange reaction, an ELISA was performed based on the detection of the light chain (β2m) of stabilized MHC complexes. The assay was performed as generally described in Rodenko et al. (Rodenko et al., 2006).
96 well MAXISorp plates (NUNC) were coated over night with 2 ug/ml streptavidin in PBS at room temperature, washed 4× and blocked for 1 h at 37° C. in 2% BSA containing blocking buffer. Refolded HLA-A*02:01/MLA-001 monomers served as standards, covering the range of 15-500 ng/ml. Peptide-MHC monomers of the UV-exchange reaction were diluted 100-fold in blocking buffer. Samples were incubated for 1 h at 37° C., washed four times, incubated with 2 ug/ml HRP conjugated anti-β2m for 1 h at 37° C., washed again and detected with TMB solution that is stopped with […]. Absorption was measured at 450 nm. Candidate peptides that show a high exchange yield (preferably higher than 50%, most preferred higher than 75%) are generally preferred for a generation and production of antibodies or fragments thereof, and/or T cell receptors or fragments thereof, as they show sufficient avidity to the MHC molecules and prevent dissociation of the MHC complexes.
A general note: In an ELISA, binding on a coated surface is turned into a signal by an enzyme label.
Molecule B1 returned a peptide exchange yield of more than 75%.

In the case of B2, the peptide exchange yield is more than 75%. On to B3, for which the peptide exchange yield was more than 75%.

B4 came in with a peptide exchange yield of 50 to 75%. For B5, the peptide exchange yield lay in the range of 50 to 75%. The value for B6 was more than 75%.

For B7, the peptide exchange yield was more than 75%. B8 yielded a peptide exchange yield of more than 75%.

Turning to B9, the peptide exchange yield is more than 75%. The value for B10 was 50 to 75%; that for B11 was more than 75%. The value for B12 was more than 75%; that for B13 was more than 75%; that for B14 was more than 75%. The value for B15 was more than 75%; that for B16 was more than 75%. Regarding B17, the peptide exchange yield was 50 to 75%. The value for B18 was more than 75%; that for B19 was 50 to 75%. The value for B20 was more than 75%; that for B21 was 50 to 75%.

Consider B22, for which the peptide exchange yield is more than 75%.

The molecule B23 gave a peptide exchange yield of more than 75%.

On to B24, for which the peptide exchange yield was more than 75%. The value for B25 was 50 to 75%; that for B26 was more than 75%. In the case of B27 it was 50 to 75%; in that of B28, more than 75%; in that of B29, 50 to 75%. The value for B30 was more than 75%; that for B31 was more than 75%. B32: the peptide exchange yield was more than 75%. In the case of B33 it was more than 75%; in that of B34, 50 to 75%. Consider B35, for which the peptide exchange yield lay within 50 to 75%. In the case of B36 it was more than 75%; in that of B37, 50 to 75%; in that of B38, 50 to 75%. The value for B39 was more than 75%; that for B40 was 50 to 75%. The value for B41 was more than 75%; that for B42 was more than 75%; that for B43 was 50 to 75%. In turn, B44 displayed a peptide exchange yield of more than 75%. The value for B45 was more than 75%; that for B46 was more than 75%. In the case of B47 it was 50 to 75%; in that of B48, 50 to 75%. The value for B49 was 50 to 75%; that for B50 was more than 75%; that for B51 was 50 to 75%. For the molecule B52, the peptide exchange yield is more than 75%.

In turn, B53 registered a peptide exchange yield of more than 75%. In the case of B54 it was more than 75%.

For B55, the peptide exchange yield was 50 to 75%. The value for B56 was 50 to 75%; that for B57 was more than 75%; that for B58 was 20 to 50%. In the case of B59 it was 50 to 75%; in that of B60, 50 to 75%.
